Laboratory results from patent publication US20200291133A1 (VACARA, published 2020).
Each block holds one binder with its values, some of them ahead of it.

What was measured:
CEP1 [1] = target: T1, CEP1 (X at 6 and 12 = citrulline; biotin-conjugated for SPR and Luminex); assay: SPR (Biacore 2000), biotinylated CEP1 on a streptavidin chip, Fab as analyte up to about 3400 nM; plot of RU against concentration; REP1 channel as reference per the legend
T1 construct: CKIHAXEIFDSXGNPTVECK; derived from alpha-enolase; also called CEPI; citrullinated alpha-enolase peptide
T1 peptide: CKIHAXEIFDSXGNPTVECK
Procedure: (§1) SPR sensorgrams of chimeric E4NG Fab fragment (A), E4 (B), F3(C), D10 (D), and B2 (E) binding to immobilized CEP1. Response Units (R.U.) reflect the value of subtracting […]. A series of analyte concentrations were tested. The binding of E4NG (F) and F3 (G) to citrullinated Histone2A peptide were analyzed in a similar way as shown in (A)-(E).
(§2) Surface plasmon resonance analysis. Binding of peptides to the given antibody was analyzed by SPR using a Biacore 2000 biosensor at 25° C. Briefly, the biotin-conjugated peptide was coupled to an […] by streptavidin binding. Then the Fab fragment or full-length antibody was diluted in PBS-P running buffer (20 mM phosphate buffer, 2.7 mM KCl, 137 mM NaCl and 0.05% Surfactant P20) and injected at in a series of concentrations. Data processing and analysis were performed using Biacore 2000 evaluation software.

CEP1 [2] = target: T1, CEP1; assay: SPR, CEP1 immobilised
Procedure: as §2

CEP1 [3] = target: T1, CEP1; assay: SPR (Biacore 2000), biotinylated CEP1 on a streptavidin chip, full antibody as analyte up to 200 nM; plot of RU against concentration; REP1 channel as reference per the legend; the legend says only E4, paragraph 117 ties the CEP1 Kd to E4NG
Procedure: as §1, §2

- Kd (CEP1 [1]): 2300 nM
B1: chimeric E4NG Fab fragment (murine IgG2b constant region) (Fab)
heavy: QVQLEESGPGLVRPSETLSLSCTVSGFPMSESYFWGWIRQSPGKGLEWLGSVIHTGTTYYRPSLESRLTIAMDPSKNQVSLSLTSVTVADSAMYYCVRIRGGSSNWLDPWGPGIVVTASS
light: QSVWTQPPSVSAAPGQKVTISCSGDDSILRSAFVSWYQQVPGSAPKLVIFDDRQRPSGIPARFSGSNSGTTATLDIAGLQRGDEADYYCAAWNGRLSAFVFGSGTKLTVLGQPKSSPSVTLFPPSSEELETNKATLVCTITDFYPGVVTVDWKVDGTPVTQGMETTQPSKQSNNKYMASSYLTLTARAWERHSSYSCQVTHEGHTVEKSLSRADCS
notes: domain: constant region; Fab made with the ImmunoPure Fab Preparation Kit (papain); also called E4Fab; mE4Fab; not shown: part of the mouse IgG2b constant region (UniProtKB P01867) left in the Fab after cleavage

- Kd (CEP1 [2]): 0.25 nM
- Kd (CEP1 [3]): 250 nM
B2: chimeric E4NG (antibody, mouse IgG2b)
heavy: B1 heavy
light: B1 light
notes: domain: constant region; Human E4 variable regions on mouse IgG2b/lambda-1 constant regions; also called chimeric non-glycosylated (NG) E4; mE4; not shown: mouse IgG2b heavy chain constant region, UniProtKB P01867
